B1: … (peptide)
peptide: FYNFGYQDLEDGS
B2: … (peptide)
peptide: YRPYGPVYNGGSG
B3: RNWYGGSG (peptide)
peptide: RNWYGGS
B4: … (peptide)
peptide: RYYPAFSGGSG
B5: … (peptide)
peptide: DANLFGYFKDGGS
B6: … (peptide)
peptide: EGFGYLFAHVGGS
B7: … (peptide)
peptide: RYPWNKLYKFDGSG
B8: … (peptide)
peptide: YRLNLKHPVGGSG
B9: … (peptide)
peptide: DLFQLVFSGSG
B10: … (peptide)
peptide: YRNAAWFSGGSG
B11: … (peptide)
peptide: RWRYYWKSEGSG
B12: … (peptide)
peptide: AWVELEYQYVFEG
B13: … (peptide)
peptide: AFNVWQYFEGGSG
B14: … (peptide)
peptide: DYFEGQLNHLGGS
B15: … (peptide)
peptide: HVYGLNLFDGSG
B16: … (peptide)
peptide: FNKVLEYKWLFEG
B17: … (peptide)
peptide: RLYPQGYGGSG
B18: … (peptide)
peptide: VSWVFGLGHEGGS
B19: … (peptide)
peptide: PRYQNFGGGSG
B20: … (peptide)
peptide: PRYSGQYGGSG
B21: … (peptide)
peptide: RWQYYNQKFGSG
B22: … (peptide)
peptide: RYAYFQHLGGSG
B23: … (peptide)
peptide: YRFPNAQSPGGSG
B24: … (peptide)
peptide: RAQYAQYLFGGSG
B25: … (peptide)
peptide: RQAYLFGGSG
B26: … (peptide)
peptide: VLAYKLQVDGSG
B27: … (peptide)
peptide: RWSFPAKGGSG
B28: … (peptide)
peptide: PRSFGYNNVGGSG

Tests used:
Diaphorase [1] = assay: peptide array, 1 uM diaphorase, measured binding without FAD / with FAD
Diaphorase [2] = assay: peptide array, 10 uM labeled diaphorase, with FAD; detector saturation
Diaphorase [3] = assay: peptide array, 10 uM labeled diaphorase, no FAD; detector saturation
Diaphorase [4] = assay: peptide array, 1 uM labeled diaphorase, with FAD
Diaphorase [5] = assay: peptide array, 1 uM labeled diaphorase, no FAD
Diaphorase [6] = assay: peptide array, 10 uM diaphorase, binding without FAD / with FAD
Diaphorase [7] = assay: peptide array, 1 uM diaphorase, binding without FAD / with FAD
Diaphorase [8] = assay: peptide array, 10 uM labeled diaphorase, with FAD
Diaphorase [9] = assay: peptide array, 10 uM labeled diaphorase, no FAD

Meas. ratio (noFAD/FAD) (Diaphorase [1])	fluorescence (Diaphorase [2])	fluorescence (Diaphorase [3])	fluorescence (Diaphorase [4])	fluorescence (Diaphorase [5])	noFAD/FAD (Diaphorase [6])	noFAD/FAD (Diaphorase [7])	fluorescence (Diaphorase [8])	fluorescence (Diaphorase [9])	Binder
0.75									B1
	> 65500	> 65500	6760	18700	1	2.77			B2
		> 65500	2940	7830	1.35	2.66	48600		B3
	> 65500	> 65500	7540	21900	1	2.91			B4
0.7									B5
0.78									B6
		> 65500	3480	9740	1.24	2.8	53000		B7
		> 65500	4150	12700	1.16	3.05	56700		B8
	> 65500		9010	5780	0.499	0.641		32700	B9
		> 65500	2930	8370	1.51	2.86	43300		B10
		> 65500	4090	11000	1.27	2.7	51400		B11
0.74									B12
0.73									B13
0.75									B14
0.72									B15
0.73									B16
		> 65500	4540	11900	1.06	2.62	61700		B17
0.71									B18
		> 65500	2460	6910	1.79	2.81	36700		B19
		> 65500	3230	8430	1.45	2.61	45200		B20
	> 65500	> 65500	5460	15700	1	2.88			B21
		> 65500	4970	13600	1.02	2.73	64100		B22
		> 65500	2370	6240	1.74	2.63	37700		B23
		> 65500	3160	8720	1.18	2.76	55400		B24
		> 65500	4480	14500	1.02	3.23	64000		B25
0.68									B26
		> 65500	3610	10000	1.28	2.77	51200		B27
		> 65500	2530	6840	1.62	2.71	40500		B28
